Experimental data: the RNAGym collection of RNA variant scans (doi:10.1021/acssynbio.7b00057)

B1: Pistol ribozyme (parent)
chain: GGGUCGUUGUUCCAUAAUCGCGUGGAUAUGGCACGCAAGUUUCUACCGGGCACCGUAAAUGUCCGACUGGAGCCGUUCGGGCGGCUAUAAACAGACCUCAGGCCCGAAGCGUGGCGGCACCUGCCGCCGGUGGUAAAAAAGAUCGGAAGAGCACACGUCU

Variants of: B1
Assay: aptazyme ON/OFF ratio, guanine; higher = stronger switching; co-transcriptional cleavage with and without guanine

| Variant | aptazyme ON/OFF ratio |
| --- | --- |
| U8C G9U U10C C12U C13A | 1.06 |
| U8C G9U U11A C12U C13G | 1.12 |
| U8C G9U U11A C12U C13U | 1.17 |
| U8C G9U U11A C12U C13A | 1.36 |
| U8C U10A U11G C12A C13G | 1.26 |
| U8C U10A U11G C12A C13A | 1.24 |
| U8C U10A U11G C12A C13U | 1.33 |
| U8C G9U U11A | 1.35 |
| U8C G9U U11G | 1.48 |
| U8C G9U U11C | 1.07 |
| U8C G9U U10C U11G C12U C13G | 1.12 |
| U8C G9U U10C U11G C12U C13U | 1.25 |
| U8C G9U U10C U11G C12U C13A | 1.13 |
| U8C U10C U11A C12G C13A | 1.2 |
| U8C U10C U11A C12G C13G | 1.24 |
| U8C U10C U11A C12G C13U | 1.24 |
| U8C G9U U10A U11A C12A | 1.39 |
| U8C G9U U10A U11A C12U | 1.48 |
| U8C G9U U10A U11A C12G | 1.32 |
| U8C U10C U11C C12G | 1.18 |
| U8C U10C U11C C12U | 1.44 |
| U8C U10C U11C C12A | 1.25 |
| U8C G9U U10C U11G C12A C13G | 1.17 |
| U8C G9U U10C U11G C12A C13A | 1.19 |

| Variant | aptazyme ON/OFF ratio |
| --- | --- |
| U8C G9U U10C U11G C12A C13U | 1.12 |
| U8C G9U U10C C12A | 1.19 |
| U8C G9U U10C C12G | 1.26 |
| U8C G9U U10C C12U | 1.05 |
| U8C G9U U10A U11C C12U C13A | 1.19 |
| U8C G9U U10A U11C C12U C13G | 1.09 |
| U8C G9U U10A U11C C12U C13U | 1.23 |
| U8C G9U U10G U11G C12A | 1.22 |
| U8C G9U U10G U11G C12G | 1.18 |
| U8C G9U U10G U11G C12U | 1.12 |
| U8C U10C C12U C13G | 1.26 |
| U8C U10C C12U C13U | 1.41 |
| U8C U10C C12U C13A | 1.21 |
| U8C G9U U10A U11C C12G C13U | 1.31 |
| U8C G9U U10A U11C C12G C13G | 1.28 |
| U8C G9U U10A U11C C12G C13A | 1.25 |
| U8C G9U U10G U11G C12U C13U | 1.15 |
| U8C G9U U10G U11G C12U C13G | 1.08 |
| U8C G9U U10G U11G C12U C13A | 1.11 |
| U8C G9U U10C U11C C12A C13U | 1.07 |
| U8C G9U U10C U11C C12A C13G | 1.62 |
| U8C G9U U10C U11C C12A C13A | 1.09 |
| U8C U10A C12A C13A | 1.26 |
| U8C U10A C12A C13G | 1.1 |

| Variant | aptazyme ON/OFF ratio |
| --- | --- |
| U8C U10A C12A C13U | 1.18 |
| U8C G9U U11A C12A C13A | 1.26 |
| U8C G9U U11A C12A C13U | 1.34 |
| U8C G9U U11A C12A C13G | 1.16 |
| U8C U10A U11A C12A | 1.17 |
| U8C U10A U11A C12U | 1.22 |
| U8C U10A U11A C12G | 1.28 |
| U8C U10C U11A C13G | 1.23 |
| U8C U10C U11A C13A | 1.32 |
| U8C U10C U11A C13U | 1.28 |
| U8C G9U U10C U11A C13A | 1.13 |
| U8C G9U U10C U11A C13G | 1.05 |
| U8C G9U U10C U11A C13U | 1.16 |
| U8C G9U U11G C12G C13G | 1.1 |
| U8C G9U U11G C12G C13A | 1.19 |
| U8C G9U U11G C12G C13U | 1.09 |
| U8C U10C U11C C12G C13U | 1.3 |
| U8C U10C U11C C12G C13G | 1.35 |
| U8C U10C U11C C12G C13A | 1.29 |
| U8C G9U U11G C12U C13G | 1.15 |
| U8C G9U U11G C12U C13U | 1.14 |
| U8C G9U U11G C12U C13A | 1.16 |
| U8C U10A U11C C12U | 1.02 |
| U8C U10A U11C C12G | 1.17 |

| Variant | aptazyme ON/OFF ratio |
| --- | --- |
| U8C U10A U11C C12A | 1.08 |
| U8C G9U U10C C12A C13G | 1.11 |
| U8C G9U U10C C12A C13U | 1.19 |
| U8C G9U U10C C12A C13A | 1.1 |
| U8C G9U U10C U11A C12G C13A | 1.08 |
| U8C G9U U10C U11A C12G C13G | 1.11 |
| U8C G9U U10C U11A C12G C13U | 1.08 |
| U8C G9U U10A U11A C12U C13A | 1.14 |
| U8C G9U U10A U11A C12U C13G | 1.2 |
| U8C G9U U10A U11A C12U C13U | 1.5 |
| U8C U10C C12G C13U | 1.33 |
| U8C U10C C12G C13G | 1.29 |
| U8C U10C C12G C13A | 1.37 |
| U8C G9U U10C U11A C12A C13A | 1.09 |
| U8C G9U U10C U11A C12A C13G | 1.08 |
| U8C G9U U10C U11A C12A C13U | 1.11 |
| U8C G9U U11G C13G | 1.02 |
| U8C G9U U11G C13A | 1.24 |
| U8C G9U U11G C13U | 1.23 |
| U8C G9U U10A U11G C12A | 1.07 |
| U8C G9U U10A U11G C12G | 1.23 |
| U8C G9U U10A U11G C12U | 1.43 |
| U8C G9U U11C C13A | 1.03 |
| U8C G9U U11C C13G | 1.03 |

| Variant | aptazyme ON/OFF ratio |
| --- | --- |
| U8C G9U U11C C13U | 1.01 |
| U8C G9U U10C U11G C12G C13A | 1.11 |
| U8C G9U U10C U11G C12G C13G | 1.15 |
| U8C G9U U10C U11G C12G C13U | 1.07 |
| U8C G9U U10A U11C C12A | 1.37 |
| U8C G9U U10A U11C C12U | 1.11 |
| U8C G9U U10A U11C C12G | 1.21 |
| U8C G9U U10G U11G C12G C13U | 1.26 |
| U8C G9U U10G U11G C12G C13A | 1.14 |
| U8C G9U U10G U11G C12G C13G | 1.1 |
| U8C G9U U10C U11G | 1.33 |
| U8C G9U U10C U11C | 1.05 |
| U8C G9U U10C U11A | 1.44 |
| U8C U10A C12G C13A | 1.17 |
| U8C U10A C12G C13G | 1.14 |
| U8C U10A C12G C13U | 1.26 |
| U8C U10A C12U C13G | 1.11 |
| U8C U10A C12U C13A | 1.14 |
| U8C U10A C12U C13U | 1.32 |
| U8C G9U U11A C12A | 1.37 |
| U8C G9U U11A C12G | 1.36 |
| U8C G9U U11A C12U | 1.39 |
| U8C G9U U10G U11G C12A C13U | 1.17 |
| U8C G9U U10G U11G C12A C13G | 1.07 |

| Variant | aptazyme ON/OFF ratio |
| --- | --- |
| U8C G9U U10G U11G C12A C13A | 1.14 |
| U8C G9U U10G C12U C13A | 1.28 |
| U8C G9U U10G C12U C13U | 1.01 |
| U8C G9U U10G C12U C13G | 1.11 |
| U8C G9U U10A U11G C12A C13A | 1.14 |
| U8C G9U U10A U11G C12A C13U | 1.26 |
| U8C G9U U10A U11G C12A C13G | 1.13 |
| U8C G9U U10A U11A C13U | 1.22 |
| U8C G9U U10A U11A C13A | 1.15 |
| U8C G9U U10A U11A C13G | 1.07 |
| U8C U10A U11A C12G C13U | 1.28 |
| U8C U10A U11A C12G C13A | 1.15 |
| U8C U10A U11A C12G C13G | 1.35 |
| U8C G9U U10C C12G C13A | 1.12 |
| U8C G9U U10C C12G C13U | 1.24 |
| U8C G9U U10C C12G C13G | 1.19 |
| U8C U10C U11C C12U C13U | 1.28 |
| U8C U10C U11C C12U C13A | 1.23 |
| U8C U10C U11C C12U C13G | 1.26 |
| U8C U10A U11C C12G C13A | 1.16 |
| U8C U10A U11C C12G C13U | 1.2 |
| U8C U10A U11C C12G C13G | 1.38 |
| U8C G9U U10A U11A C12A C13A | 1.28 |
| U8C G9U U10A U11A C12A C13U | 1.33 |

| Variant | aptazyme ON/OFF ratio |
| --- | --- |
| U8C G9U U10A U11A C12A C13G | 1.1 |
| U8C G9U U10C | 1.87 |
| U8C G9U U10G | 2.84 |
| U8C G9U U10G U11A C12U | 1.04 |
| U8C G9U U10G U11A C12G | 1.22 |
| U8C G9U U10G U11A C12A | 1.56 |
| U8C G9U U10C U11A C12U | 1.17 |
| U8C G9U U10C U11A C12A | 1.15 |
| U8C G9U U10C U11A C12G | 1.17 |
| U8C U10C C12U | 2.98 |
| U8C U10C C12A | 1.34 |
| U8C U10C C12G | 1.29 |
| U8C U10C U11C | 1.85 |
| U8C U10C U11A | 1.63 |
| U8C U10A U11A C12U C13G | 1.3 |
| U8C U10A U11A C12U C13A | 1.18 |
| U8C U10A U11A C12U C13U | 1.26 |
| U8C U10C C13G | 1.26 |
| U8C U10C C13U | 1.51 |
| U8C U10C C13A | 1.07 |
| U8C G9U U10G C12A C13A | 1.48 |
| U8C G9U U10G C12A C13G | 1.13 |
| U8C G9U U10G C12A C13U | 1.57 |
